Test results as given in the supplement of paper PMC10126150.
± gives the standard deviation of the averaged measurements.

The sequences below were run on ATP (assay: switch fluorescence ratio, 500 uM ATP over buffer (Cy3 cluster intensity, sum of 5 cycles each) (fold (ratio)); higher = stronger signal-on switching upon ATP binding; sequences stand for … in TCGTCGGCAGCGTCAGATGTGTATAAGAGACAGTTTTTTTTTTTTTTTTTTTTTTTTT…TC). Conditions: aptamer strand: ATP DNA aptamer (quencher-CACCTGGGGGAGTATTGCGGAGGAAGG + anchor), 100 nM annealed; ATP concentration: 500 uM.
In short: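 Per cluster, summed Cy3 intensity from the target cycles was divided by that from the buffer cycles to give the fluorescence ratio, then averaged per switch-domain sequence. Clusters outside 100-1000 RFU were excluded. The Cy3-labelled switching-strand clusters, on a modified Illumina MiSeq flow-cell, were annealed to 100 nM quencher-labelled ATP aptamer and imaged in selection buffer, then after 15 min with 500 uM ATP at 22 °C, for five cycles with NaOH stripping and re-annealing between them.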
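Note: ATP exposure 15 min at 22 °C before imaging.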

In order of rising switch fluorescence ratio:
1. CAGACTTCGG  0.934 ± 0.016
2. CAGGGGTGGC  0.9529 ± 0.0021
3. CAGGTTATGG  0.958 ± 0.042
4. CAGTCTGGGG  0.964 ± 0.012
5. CAGCGGCTGT  0.966 ± 0.026
6. CAGAGTAGGG  0.969 ± 0.049
7. CAGGCGGTTT  0.969 ± 0.029
8. CAGGTAAGGA  0.969 ± 0.01
9. CAGTGTGTGG  0.9696 ± 0.0024
10. CAGTGTCTGC  0.9726 ± 0.0016
11. CAGGATCTTG  0.974 ± 0.031
12. CAGGGCTGGT  0.976 ± 0.015
13. CAGGTCATTA  0.9784 ± 0.0076
14. CAGGATAAAT  0.979 ± 0.06
15. CAGGCGGAAA  0.98 ± 0.015
16. CAGATTGCTC  0.982 ± 0.037
17. CAGAGGCGTG  0.9831 ± 0.0079
18. CAGGGAGGGT  0.983 ± 0.014
19. CAGATGGTTG  0.9835 ± 0.0041
20. CAGGGGGCCA  0.984 ± 0.033
21. CAGTGAGGTA  0.984 ± 0.023
22. CAGGTAGGAG  0.985 ± 0.017
23. CAGTGGAGTG  0.98561 ± 8.7e-05
24. CAGGGAGCCT  0.988 ± 0.05
25. CAGGTTGCAC  0.9894 ± 0.0069
26. CAGACGCGGG  0.99 ± 0.057
27. CAGGCTTTGC  0.992 ± 0.076
28. CAGGGGGGAG  0.992 ± 0.035
29. CAGTCTGTGT  0.9921 ± 0.0075
30. CAGGGAGGGG  0.995 ± 0.032
31. CAGATGACAG  0.997 ± 0.012
32. CAGCCTTATT  0.997 ± 0.029
33. CAGAATGGGG  0.998 ± 0.014
34. CAGTGTCGGG  0.9984 ± 0.0085
35. CAGTAAGTGG  0.999 ± 0.02
36. CAGTAATTTT  0.999 ± 0.013
37. CAGAAGTCTC  1 ± 0.014
38. CAGAGATGGG  0.9997 ± 0.0049
39. CAGAGATTTT  1.005 ± 0.0029
40. CAGAGGGGTT  1 ± 0.021
41. CAGCTGGAGC  1 ± 0.017
42. CAGGCGGGGA  1.004 ± 0.0074
43. CAGGTATGTT  1 ± 0.016
44. CAGGTGGTCA  1 ± 0.021
45. CAGGTTAGGT  1.004 ± 0.01
46. CAGTACGGGG  1 ± 0.01
47. CAGTGGTCGG  1 ± 0.038
48. CAGAGATGTT  1.01 ± 0.032
49. CAGAGTCCTC  1.01 ± 0.027
50. CAGATTATGT  1.01 ± 0.055
51. CAGCGGGGGC  1.01 ± 0.016
52. CAGGAGGGGA  1.01 ± 0.011
53. CAGGCAGTTT  1.01 ± 0.016
54. CAGGGCAGCC  1.01 ± 0.03
55. CAGGGCCATG  1.009 ± 0.0014
56. CAGGGGGGGC  1.01 ± 0.026
57. CAGGGGGTCC  1.01 ± 0.022
58. CAGGGTTAGG  1.01 ± 0.026
59. CAGGTAAAGG  1.01 ± 0.022
60. CAGGTTTTGT  1.01 ± 0.036
61. CAGAATTGTG  1.02 ± 0.012
62. CAGATATTGG  1.02 ± 0.023
63. CAGATATTTC  1.02 ± 0.021
64. CAGATTTCTA  1.02 ± 0.019
65. CAGCATGGGT  1.025 ± 0.0034
66. CAGCGATTTA  1.02 ± 0.053
67. CAGGAGAGGG  1.02 ± 0.029
68. CAGGGGTTGG  1.02 ± 0.028
69. CAGGGTGGGT  1.02 ± 0.05
70. CAGTGGGGCT  1.016 ± 0.0057
71. CAGAACAGCT  1.029 ± 0.0039
72. CAGCGGTAGG  1.03 ± 0.016
73. CAGCTTTCGG  1.03 ± 0.048
74. CAGGCTAAGA  1.026 ± 0.0047
75. CAGGGGGTGC  1.03 ± 0.072
76. CAGGGGGTGT  1.03 ± 0.032
77. CAGGGGTTTA  1.03 ± 0.034
78. CAGTGGGGAC  1.03 ± 0.055
79. CAGAGTCTGG  1.04 ± 0.024
80. CAGGGTAACT  1.04 ± 0.066
81. CAGGGTGAGA  1.04 ± 0.016
82. CAGGTGTGGA  1.044 ± 0.0053
83. CAGTGTACGG  1.04 ± 0.013
84. CAGGGAGCAG  1.05 ± 0.03
85. CAGGGTACGA  1.05 ± 0.012
86. CAGAGTGCTG  1.06 ± 0.03
87. CAGATGTGAC  1.057 ± 0.0061
88. CAGGGGAGGG  1.06 ± 0.09
89. CAGCGCGTCT  1.07 ± 0.06
90. CAGAAGGGGA  1.09 ± 0.079
91. CAGGGGGTAC  1.09 ± 0.086
92. CAGTCCGGGA  1.101 ± 0.0079
93. CAGTGTGGTT  1.11 ± 0.24
94. CAGGGAGACG  1.12 ± 0.047
95. CAGGGGTGAT  1.18 ± 0.19
96. CAGGGCAATG  1.2 ± 0.045
97. CAGTAGCTGT  1.204 ± 0.0022
98. CAGGGGTTGT  1.21 ± 0.31
99. CAGTGATTC  1.26 ± 0.35
100. CAGGAGCATT  3.09 ± 1.5
